The source of these data is the DeepSol protein solubility set.

This data set is described as follows: soluble on expression in E. coli; label from the status in PepcDB or PDB records.
Take “MSLKYKAIAAGLLAAHLLAHPISSLAETKKFPDVSDSAWSKDAIYYLVERNVINGMPDGNFMPYGNLTRAQAAKIIATAIGAKVDPNAKPSYNDAKNSWAASFIAAMEKENIIKGREPGVFDPEGKVTRAEMAAMLVRAYNLKSKVTGPVPTKFADLENHWGKEEVNILVELKLSLGTENGWKPNDSITREQAAQLTAQTDKFSKNSDRPVEEGHHHHHH”: the “soluble on expression in E. coli” value is “soluble”.
“MSLKYNNCVIGSRSVFPPRGLQETNIGIVHISDINHYYTLNLSRKIENHLSKLTGAGTGDSVEDSMFLATMEAYERLANSIPVSQQVIASQEELGDLAVPLSDFPKMNQSETSSNGIEKKYLRWSESYNLTDQSRCYIPQVYINLYTHFNYNGEGLTHPISTGCAIHQDYTRAVINGIYEVIERDGIALFWLLKRPLKKLDKQEFIDDLEIFSSPFLGKTTLYDASTINGVYTFCLRAETHFSESIRNVVMFSSNTCPKEAISKLKKELISVIYSLANGIEKQSNLLKQDPMSFYHVDEGALYMAHPSKAYAFEFLNNSSKGSIPTNEIQFSSYGEELRYLIKKLEGLGHKVYVTNLSNRECEENQLKAVKVTIPSLQPISFVHSAREGHHHHHH”: the “soluble on expression in E. coli” value was “not soluble”.
Under “MSLKYSFIAQHKKTWPVGMMCQLMGVTSSGYYSYQKRKSTKTNNEPEHEELLEWVKKISESSKFSYGNRRIRKALNALGYPVGRRKTHRLMREAGIFVRYKKKYKVTTNSNHKQPIFDNVLNRKFQVNEPNRAYVSDMTYIPTHEGWLYLTVVIDLFSRKVVGWNMSSRMKADTVCDALTMAIWQRKPKAGLIVHSDRGSQYASKQYRSLLNQHGLVGSMSKKGDCWDNSVAESFFSRLKDELVHWRNYQTRREAKQDILDYMTMFYNNQRLHSSLDYLSPNQFENRYWGLMKKVAEGHHHHHH” stands “not soluble”; under “MSLLHERINFNPKVDVEVKLPERLEEGKITEVNVVVRNRGSKGILEVKIEGEDLIGEAKRVKLDSGEKLVKLSVKPLNKGDKVLKVKALFEDELNLYYSEVYEAEFSIQVLPSVDSIREAAREEVSIRMREALKKGKIGVESTELYGLREYLPGDDVRRIDWKATTRLRKLIVKEFMRESEGDVYIVLDATREMRKRIRRSKIDYASSLVLYIATILIRSNKRVGLILFSEDEFKVVKPEKGSEQLERIRETLRFKPLKGLTSFKGEVGRLKTWDFLRKLFPRKRRGVEEALLSIRNPSYVILITDLMSNTPRLYSAVSMVKKKHKVIILSPNPVLFYSGELDEETLRFLYEKYRERERILRKFNSLVPTVDLGPSDYGREVLEVLEGEGHHHHHH”, “not soluble”.
Take “MSLLNEENNFYNVDLLDLLKDSNEAVLPYKRIRFRRNQKILTEGAETTYFYIIEDGVVSMSKNTCKEDSIISFLGKQDSIGPLTLLGGAKSPANYTSISEVSVYQFERKYVLNKLLSSPDVFWQMNSLMQSMVSPMLEREAYVNLPSSEKVLAGLIACGERFGRIESDGSCLIPYYFTQKILGNYLNLARAYVATNLRKLEEDGVISLSPKPWRVKNFDVHRQKLKDNYKPYI”: the “soluble on expression in E. coli” value was “not soluble”.
Under “MSLLNENDIEQLTLQRLQSLGWEYRYGKDLPVHEGKFARGDLSGVVFVEQLREAVRKLNPQLPESAVDSVVKSATKSDIGDLVVRNQTFYKLLRDGVRVEYTQNGEQKIEMVRLVDFEHWGNNRFVAVNQLEIRSRKGGKRIPDIIGFVNGLPLVVFELKNPLRESADLLQAFNQFETYKDEIAELFVYNQALIISDGIVARLGSLSADFQRFTPWKVVDEKNKSARLYFDDELQSLLNGLMQPEDLLDYIRYFVLFERDSVGKTIKKIAAYHQYYGVNEAVDSTIWATSEKGDRRIGVMWHTQGSGKSISMLFYAGKLLAQPELKNPTIVVVTDRNDLDGQLFQTFSSGKDLIKQTPQQVEDRDQLRQLLAQNEVGGVFFTTIQKFALNEEESRFPILNERNNIIVISDEAHRSQYGFTQKLHNGKFQTGYARHLRDALPNASFIGFTGTPISLEDKDTQDVFGRYVSIYDLQDAVEDGATVPIVYDDARQIRLNKKDHDALFAEIDALLEEEPSTSLRLREKLLGSQERLIELAADFVQHFAKRNEVVDSKAMMVVSSRQICVDLYNQIIALHPEWHSDNINEGAIKIVMTGSASDTPEMQKHIYSKQEKQTLERRFKDPNDPLKVVIVRDMWLTGFDAPCCNTMYLDKPMKGHNLMQAIARVNRVFANKSRENGGLIVDYVGLAKELRAATQQYTNSTGKGQLAEDVQSVFFKMKEQLEFIRTLFATPIEGKTFDVQAALEKDNPNDLLMAIRFAANHILSLDQLSFDGKAHEQHWFNKKETEPRKKAFLKTAGLVKKGYMLCGTLAEVEPYNQEIAFYDAVRAILTKREQKGTGTNERQILLKKLVNQTVYSEGVIDLFDLLEKPQPQISLLSEEFLQTVKNSPTKNLWVSAMERYLASEIKVKSGTNLTLQKDFERRLKEALNQYHNHNLTVVEILDELFKMSQDFQERLALGKKLGLTKEELAFYEALSQNQSAKDLMGDEVLSKLAKEITETLRKSVTIDWQYKEAVRARIRLLVRRALQKYKYPPDKQEEAVTYVIKQAEEIAEDLTGLEGHHHHHH” stands “soluble”; under “MSLLPVNNPPLSTGNVSFYRTTSIDNVHNNYLSEWVEWTKNSISGENRETAFTRLQLCLENSETSLDLSCLGLRSLPRLPDNLDEINVSNNQLSMLPELPRALKELNASSNQLSALPELPVSLEYINVSDNHLFALPELPASLEYINVSDNHLSVLPRLPMSLELLDAARNALEVIPDFPERDDHIIRIFWLNQNRITAIPESILGLSSDSVVNLRENQLSPRIMQTLLQQTAQPDYHGPRIYFSMSDGQQNTLHRPLADAVTAWFPENKQSDVSQIWHAFEHEEHANTFSAFLDRLSDTVSARNTSGFREQVAAWLEKLSASAELRQQSFAVAADATESCEDRVALTWNNLRKTLLVHQASEGLFDNDTGALLSLGREMFRLEILEDIARDKVRTLHFVDEIEVYLAFQTMLAEKLQLSTAVKEMRFYGVSGVTANDLRTAEAMVRSREENEFTDWFSLWGPWHAVLKRTEADRWAQAEEQKYEMLENEYPQRVADRLKASGLSGDADAEREAGAQVMRETEQQIYRQLTDEVLALRLSENGSQLHHSEGHHHHHH”, “soluble”; under “MSLLQTKDYEFWFVTGSQHLYGEETLELVDQHAKSICEGLSGISSRYKITHKPVVTSPETIRELLREAEYSETCAGIITWMHTFSPAKMWIEGLSSYQKPLMHLHTQYNRDIPWGTIDMDFMNSNQSAHGDREYGYINSRMGLSRKVIAGYWDDEEVKKEMSQWMDTAAALNESRHIKVARFGDNMRHVAVTDGDKVGAHIQFGWQVDGYGIGDLVEVMDRITDDEVDTLYAEYDRLYVISEETKRDEAKVASIKEQAKIELGLTAFLEQGGYTAFTTSFEVLHGMKQLPGLAVQRLMEKGYGFAGEGDWKTAALVRMMKIMAKGKRTSFMEDYTYHFEPGNEMILGSHMLEVCPTVALDQPKIEVHSLSIGGKEDPARLVFNGISGSAIQASIVDIGGRFRLVLNEVNGQEIEKDMPNLPVARVLWKPEPSLKTAAEAWILAGGAHHTCLSYELTAEQMLDWAEMAGIESVLISRDTTIHKLKHELKWNEALYRLQKEGHHHHHH”, “soluble”.
Turning to “MSLMEDVGKEMSKIIQKRDINERYEELVNEVLKDQDVQAFIQANRERLTDEDIRKSYAKLYEFVQEKKKFQVNDPAMIAPGYEPRLMLNFHYIDVTYVPTADLIARQKEEEIRNRVRAMDMPKDVREANLRDFDPSSQGRAKALAEAMQFLREYPATPKEFHKGLYLQGPFGVGKSFLLGAMANALAERGFTTTIVHFPTFTVEMKQAIGRDQVGEKLDAVKKSPILMIDDIGAESMTSWIRDDVLSVILQYRMQEQLVTFFSSNLDLKALEEHLTVTQRGEQEPLKARRIMERVRYLSKEITMTGNDRRNGEGHHHHHH”, the “soluble on expression in E. coli” value is on record as “soluble”.
As for “MSLMKRQFEDVTRIVIKIGTSSLVLPTGKINLEKIDQLAFVISSLMNKGKEVILVSSGAMGFGLDILKMEKRPTNLAKQQAVSSVGQVAMMSLYSQIFAYYQTNVSQILLTRDVVVFPESLANVTNAFESLISLGIVPIVNENDAVSVDEMDHATKFGDNDRLSAVVAGITKADLLIMLSDIDGLFDKNPTIYEDAQLRSHVANITQEIIASAGGAGSKFGTGGMLSKVQSAQMVFENKGQMVLMNGANPRDILRVLEGQPLGTWFKQIEEVRHDEGHHHHHH”, the “soluble on expression in E. coli” value is “soluble”.
Turning to “MSLMNAEQGVCAWAMNHPLEREYHDKEWGRAVHDDTKLFEFLTLEGAQAGLSWLTVLKKREGYRQAFLGYDLQRLAQCDESHVEQIIAEYDVVKHRGKIASVFSNARAALALQQEFGSLDAALWQFVGGQPKINRWVSMSDVPASTEESKAMSKFLKKRGFKFVGETICYAFMQACGLVNDHLVGCPNHSNADKLEGGSHHHHHH”, the “soluble on expression in E. coli” value is “soluble”.
With “MSLMYKVLLVDDEYMILQGLTMIIDWQALGFEVVQTARSGKEALTYLTQYPVDVMISDVTMPGMTGLDLIEAAKTYHPQLQTLILSGYQEFSYVQKAMELETKGYLLKPVDKAELQAKMKQFKDCLDAQQAESIRQEAYHDSLLTLWLTDELSEKEFQQLSQGLPAAALIGFTVLYLDCQEWQAAIDAYFEQEGQPFYLKKEEDKKVYLAVLLGKTDQAKAFTYDLQKRFSRNMHQLILGETVDDWENVYESYNQVLKSLFYNCEVSPIRAKDKSKIELPESRLQFFAFNKALMIGDEPTILSKLEAIFDEMKTLNFSPEDVKHVSFLLFSDIYRQFPILDKMTYLSMVKTIHDSQSIDRILRELKKVLDVTNQNNSPEKRYSDLVSETIDCIRKEYHQELTLKAIADRLHVNGVYLGQCFKNETERSFTQYLNHVRIQKAQQLLLYTNQSINEIAYETGYNTNHYFIKMFKKLNGLSPKEFRDRYKDNYQAEGHHHHHH”, the “soluble on expression in E. coli” value is “soluble”.
Turning to “MSLNATIVDIARRANVTNITVSRTFNQPGLVKQETREKIHAIAKELNYVPNAFAQGLKRSSSQIIGIVTSSMYNPFYSELIQTVSRIARTQCYQIMLFDTDGSEEAEMEAIQALFGYKACGILLSPVRDDKNYQPAYLDLAETYRVPLILIDRDIYNRQLSGVFLNNKEIGLLAGKYLSEQPERKMLIIGGPAESEITRVRIEGIINALENKKNDVHIINGDYDFISQEAAVRDYLSSPQNQPDYIIGLNGILTLGAIAICHELKIYNNIKFFSIDEPPKAADYGLHIAGVYHDTQMLGEIAAELLFNAIKKPHNDQAVRREFFTGSLLTHEGHHHHHH”, the “soluble on expression in E. coli” value is on record as “soluble”.
Turning to “MSLNDNPAWFNNPRKRAIPNSIIKRSNGQSLSPVRSDSADVPAFSNSNGFNNVTFGSKKDPRILKNVSPNDNNSANNNAHSSDLGTVVFDSNEAPPKTSLADWQKEDGIFSSKTDNIEDPNLSSNITFDGKPTATPSPFRPLEKTSRILNFFDKNTKTTPNTASSEASAGSKEGASTNWDDHAIIIFGYPETIANSIILHFANFGEILEDFRVIKDFKKLNSKNMSKSPSLTAQKYPIYTGDGWVKLTYKSELSKSRALQENGIIMNGTLIGCVSYSPAALKQLASLKKSEEIINNKTSSEGHHHHHH”, the “soluble on expression in E. coli” value was “soluble”.
For the sequence “MSLNEFPSRPIKLVVPYPAGGTLDIVGRNIAKMAEASLGEPIVADNVPGASGVIAHSQIARAPADGYTIGMSGLSPLVLAPHQYKNLPYSPLKDLSYVACFGETPLVLNVAISLPVKTVQELVAYAKANPGKLNYGSAGIGNASYLAAALFARQAGIEISHVPYKGNAPAMIDLVGGQIPILFDPPQTTLPQAATGKVRPLAVTSSQRFPGLPTLPTIAEAGWANYEFSIWYAMVAPAGVTLPPKNVSLAEWFNASKENGNDEDSAGALHAGIQAAARATAGTTPAARPCSVREGHHHHHH”, the “soluble on expression in E. coli” value was “not soluble”.
“MSLNFTEDGTLPLLGSKDAKIAIIEFSDFQCPYCKRFTDSAFKQIKENYIDTGKVQYIARDFPLSFHAKAMGAAIAATCSLHQNSYWPMRDMLFSNVKDLGEELYQKAATDLSLNLEEFNKCMKDKSIANKVEQDLTLGKSLGIRGTPSFLIGRVENDQLIEPQIVVGAQRYAVFESLLEQLSNSDKAKEGHHHHHH”: the “soluble on expression in E. coli” value is “soluble”.
